The source of these data is paper PMC11050682, “https://orcid.org/0009-0003-0282-9605 Pérez-Mora Salvador Conceptualization Methodology Software Validation Formal analysis Investigation Data curation Writing – original draft Writing – review & edit”.

In the data set the target is T1, drEhHSTF5 (dimeric rEhHSTF5, fraction 10) (Entamoeba histolytica, UniProt C4M5X4 1-329).
T1 sequence: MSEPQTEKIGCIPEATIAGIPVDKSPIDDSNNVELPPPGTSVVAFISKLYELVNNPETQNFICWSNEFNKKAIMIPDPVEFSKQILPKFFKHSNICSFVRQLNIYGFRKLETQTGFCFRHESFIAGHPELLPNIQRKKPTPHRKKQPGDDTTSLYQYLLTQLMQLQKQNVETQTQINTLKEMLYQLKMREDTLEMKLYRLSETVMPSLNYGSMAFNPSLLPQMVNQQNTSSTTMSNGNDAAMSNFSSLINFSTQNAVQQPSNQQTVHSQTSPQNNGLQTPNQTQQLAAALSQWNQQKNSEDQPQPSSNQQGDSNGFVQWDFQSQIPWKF
Kind of data set: competition; 150x molar excess; complex reduced. As to conditions: protein: recombinant; tags: N-terminal His6 (pET-28a); chain copies: 2; blunt.

B1: HSE_EhPgp5 unlabelled (specific competitor) (dsDNA)
DNA 1: ATAGAAATTTTTCATA
DNA 2: TATGAAAAATTTCTAT
As for B1, the binding result is listed as “binds”.
